The results in this text go back to patent publication US20230338423A1 (published 2023).

The target of one assay is T1, V5-tagged mouse Susd2 (mouse, UniProt Q9DBX3 23-820).
T1 construct: Retrovirally expressed in Susd2-/- OT-I T cells and precipitated from RIPA lysates with anti-V5 agarose; also called V5-Susd2; pMIG II-Susd2; not shown: V5 and His tag
T1 sequence: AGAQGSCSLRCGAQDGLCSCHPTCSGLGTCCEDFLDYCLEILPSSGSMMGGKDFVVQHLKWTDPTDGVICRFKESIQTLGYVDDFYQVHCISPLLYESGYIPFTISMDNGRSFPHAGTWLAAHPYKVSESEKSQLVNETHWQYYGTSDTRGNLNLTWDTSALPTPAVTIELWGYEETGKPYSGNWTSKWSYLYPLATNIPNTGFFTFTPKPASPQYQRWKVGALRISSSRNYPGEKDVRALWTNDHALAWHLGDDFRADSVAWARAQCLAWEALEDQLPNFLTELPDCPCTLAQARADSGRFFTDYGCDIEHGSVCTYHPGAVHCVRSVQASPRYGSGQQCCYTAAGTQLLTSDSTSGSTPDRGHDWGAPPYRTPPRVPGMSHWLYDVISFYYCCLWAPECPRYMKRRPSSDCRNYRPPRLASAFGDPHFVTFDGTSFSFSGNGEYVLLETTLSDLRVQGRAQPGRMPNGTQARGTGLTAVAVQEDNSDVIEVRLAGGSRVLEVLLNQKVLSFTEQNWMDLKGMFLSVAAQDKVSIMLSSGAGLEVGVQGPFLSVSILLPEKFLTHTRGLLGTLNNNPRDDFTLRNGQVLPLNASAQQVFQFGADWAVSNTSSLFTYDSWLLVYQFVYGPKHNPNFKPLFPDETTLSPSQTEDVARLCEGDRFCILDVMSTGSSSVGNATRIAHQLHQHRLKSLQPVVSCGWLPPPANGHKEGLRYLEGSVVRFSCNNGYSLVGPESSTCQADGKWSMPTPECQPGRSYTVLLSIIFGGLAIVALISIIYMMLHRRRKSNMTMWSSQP
Briefly: anti-V5 immunoprecipitation and immunoblot, Susd2-reconstituted Susd2-/- OT-I T cells.

In assay [1] the target is T2, V5-SUSD2 (human SUSD2, V5-tagged) (human, UniProt Q9UGT4 28-822).
T2 construct: Overexpressed in 293T cells or Jurkat T cells; also called SUSD2^WT; not shown: V5 and His tag
T2 sequence: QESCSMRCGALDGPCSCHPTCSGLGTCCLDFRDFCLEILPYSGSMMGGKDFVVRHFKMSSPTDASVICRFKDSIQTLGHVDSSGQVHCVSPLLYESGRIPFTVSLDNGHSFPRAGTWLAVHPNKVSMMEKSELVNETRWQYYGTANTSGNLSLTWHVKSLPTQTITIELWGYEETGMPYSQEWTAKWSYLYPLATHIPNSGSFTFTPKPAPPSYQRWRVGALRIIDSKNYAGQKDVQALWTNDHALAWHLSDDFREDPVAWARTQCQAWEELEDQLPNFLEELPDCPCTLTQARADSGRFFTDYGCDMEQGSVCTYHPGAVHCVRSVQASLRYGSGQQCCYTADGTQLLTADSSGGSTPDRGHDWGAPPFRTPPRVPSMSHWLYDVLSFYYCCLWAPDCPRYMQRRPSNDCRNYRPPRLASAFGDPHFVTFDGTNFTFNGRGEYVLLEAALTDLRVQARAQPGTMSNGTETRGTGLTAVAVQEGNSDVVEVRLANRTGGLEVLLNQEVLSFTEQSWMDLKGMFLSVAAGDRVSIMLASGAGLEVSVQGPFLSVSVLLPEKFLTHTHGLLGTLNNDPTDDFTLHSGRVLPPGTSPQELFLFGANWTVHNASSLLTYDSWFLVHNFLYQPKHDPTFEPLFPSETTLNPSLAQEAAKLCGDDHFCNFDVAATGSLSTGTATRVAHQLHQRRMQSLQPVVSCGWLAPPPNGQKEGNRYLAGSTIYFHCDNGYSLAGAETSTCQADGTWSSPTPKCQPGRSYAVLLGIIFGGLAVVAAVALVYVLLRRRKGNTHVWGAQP
Briefly: anti-V5 immunoprecipitation and immunoblot, Jurkat T cells.

Description for V5-tagged mouse Susd2: Immunoprecipitation and immunoblotting. For immunoprecipitation, cells were lysed in RIPA buffer supplemented with cOmplete™ Protease Inhibitor Cocktail (Sigma-Aldrich). […] Samples were washed 5 times with cold RIPA buffer. To elute proteins from the beads, samples were incubated with 30 μl of SDS sample buffer at 95° C. for 10 minutes. Protein content in the supernatant was analyzed by immunoblotting. For immunoblotting, electrophoresis of protein was performed by using the NuPAGE system (Invitrogen) according to the manufacturer's protocol. Briefly, cultured CD8⁺ T cells or Jurkat cells were collected and lysed with RIPA buffer. Proteins were separated on a NuPAGE precast gel and were transferred onto nitrocellulose membranes (Bio-Rad). Appropriate primary antibodies and HRP-conjugated secondary antibodies were used and proteins were detected using the Enhanced Chemiluminescent (ECL) reagent (Thermo Fisher Scientific).

B1: mouse common γ chain (endogenous, OT-I T cells) (receptor, UniProt P34902 23-369, looked up)
chain: WSSKVLMSSANEDIKADLILTSTAPEHLSAPTLPLPEVQCFVFNIEYMNCTWNSSSEPQATNLTLHYRYKVSDNNTFQECSHYLFSKEITSGCQIQKEDIQLYQTFVVQLQDPQKPQRRAVQKLNLQNLVIPRAPENLTLSNLSESQLELRWKSRHIKERCLQYLVQYRSNRDRSWTELIVNHEPRFSLPSVDELKRYTFRVRSRYNPICGSSQQWSKWSQPVHWGSHTVEENPSLFALEAVLIPVGTMGLIITLIFVYCWLERMPPIPPIKNLEDLVTEYQGNFSAWSGVSKGLTESLQPDYSERFCHVSEIPPKGGALGEGPGGSPCSLHSPYWPPPCYSLKPEA
notes: whole, on cells; Endogenous, probed by immunoblot in Susd2 precipitates; also called common 7 chain
As to B1, in the assay with V5-tagged mouse Susd2, the binding result is given as “no binding”.

B2: mouse IL-2Rβ (endogenous, OT-I T cells) (receptor, UniProt P16297 27-539, looked up)
chain: AVKNCSHLECFYNSRANVSCMWSHEEALNVTTCHVHAKSNLRHWNKTCELTLVRQASWACNLILGSFPESQSLTSVDLLDINVVCWEEKGWRRVKTCDFHPFDNLRLVAPHSLQVLHIDTQRCNISWKVSQVSHYIEPYLEFEARRRLLGHSWEDASVLSLKQRQQWLFLEMLIPSTSYEVQVRVKAQRNNTGTWSPWSQPLTFRTRPADPMKEILPMSWLRYLLLVLGCFSGFFSCVYILVKCRYLGPWLKTVLKCHIPDPSEFFSQLSSQHGGDLQKWLSSPVPLSFFSPSGPAPEISPLEVLDGDSKAVQLLLLQKDSAPLPSPSGHSQASCFTNQGYFFFHLPNALEIESCQVYFTYDPCVEEEVEEDGSRLPEGSPHPPLLPLAGEQDDYCAFPPRDDLLLFSPSLSTPNTAYGGSRAPEERSPLSLHEGLPSLASRDLMGLQRPLERMPEGDGEGLSANSSGEQASVPEGNLHGQDQDRGQGPILTLNTDAYLSLQELQAQDSVHLI
notes: whole, on cells; Endogenous, probed by immunoblot in Susd2 precipitates; also called CD122
B2: the binding result with V5-tagged mouse Susd2 was “no binding”.

B3: endogenous IL-2Rα in human Jurkat T cells (receptor, UniProt P01589 22-272, looked up)
chain: ELCDDDPPEIPHATFKAMAYKEGTMLNCECKRGFRRIKSGSLYMLCTGNSSHSSWDNQCQCTSSATRNTTKQVTPQPEEQKERKTTEMQSPMQPVDQASLPGHCREPPPWENEATERIYHFVVGQMVYYQCVQGYRALHRGPAESVCKMTHGKTRWTQPQLICTGEMETSQFPGEEKPQASPEGRPESETSCLVTTTDFQIQTEMAATMETSIFTTEYQVAVAGCVFLLISVLLLSGLTWQRRQRKSRRTI
notes: whole, on cells; Endogenous protein, pulled down from Jurkat lysate
With B3, the binding result in assay [1] is “binds”.

B4: mouse IL-15Rα (endogenous, OT-I T cells) (receptor, UniProt Q60819 33-263, looked up)
chain: GTTCPPPVSIEHADIRVKNYSVNSRERYVCNSGFKRKAGTSTLIECVINKNTNVAHWTTPSLKCIRDPSLAHYSPVPTVVTPKVTSQPESPSPSAKEPEAFSPKSDTAMTTETAIMPGSRLTPSQTTSAGTTGTGSHKSSRAPSLAATMTLEPTASTSLRITEISPHSSKMTKVAISTSVLLVGAGVVMAFLAWYIKSRQPSQPCRVEVETMETVPMTVRASSKEDEDTGA
notes: whole, on cells; Endogenous, probed by immunoblot in Susd2 precipitates
B4: in the assay with V5-tagged mouse Susd2, the binding result is reported as “no binding”.
